# Results reported in patent US7183092B2, “Modified luciferase” (priority 2003, dated 2007).
# Entries after “also recorded” stand apart in the source; their conditions may differ.
# Key:
# [1] = Thermostability (storage stability) of luciferase; format: physicochemical, Photinus pyralis; conditions: FIG. 6-8; 10 μg/ml enzyme kept at 0° C., 25° C. and 37° C.
# Protocol: Both purified wild type luciferase and CNBLuc03-06 luciferase (SEQ ID NO: 4) were diluted to 10 μg/ml and aliquoted in three micro-centrifuge tubes for these storage stability studies conducted at different temperatures. The tubes containing wild type luciferase and CNBluc03-06 luciferase (SEQ ID NO: 4) were incubated at three different temperatures, 0° C. (FIG. 6), 25° C. (FIG. 7), and 37° C. (FIG. 8) over time. The assay contained 40 mM Tris-Acetate at pH 7.8, 1 mM MgSO4, 0.1 mM EDTA, 500 μM D-Luciferin, 1 mM ATP, 0% ethanol and 33 mM DTT. The light output was measured every 30 minutes after two initial measurements at time 0 and 10 minutes. For each measurement all the samples were diluted to 2 μg/ml so that 10 μl of each sample could be added to give 20 ng of purified enzyme in each reaction.
# [2] = Quantitative in vitro screening of mutant luciferases with chloroform; format: biochemical, Photinus pyralis; conditions: screening; 68.8 mM chloroform (0.8% vol.), 10% ethanol, 33 mM DTT, cell lysate supernatant
# Protocol: Selected colonies from secondary screening were inoculated and grown in 5 ml LB broth containing 100 μg/ml ampicillin at 30° C. overnight. When the OD660 reached approximately 1, bacterial cells were harvested from 1.5 ml of culture by centrifugation for 3 min at 12,000 rpm (Eppendorf centrifuge model 5415D). Harvested cells were resuspended in 1 ml of 40 mM Tris-Acetate buffer, pH 7.8, and sonicated for 10 seconds using a Branson Sonifer 450, Duty cycle-40 and output control-4. The activity of each luciferase sample, prepared using 10 μl of supernatant from a subsequent centrifugation of sonicated bacterial cell culture, was tested in 200 μl total reaction volume by a Luminometer (Perkin Elmer, model Victor II). Each assay contained 40 mM Tris-Acetate, 1 mM MgSO4, 0.1 mM EDTA (ethylenediaminetetraacetic acid), 33 mM DTT (dithiothreitol), 500 μM D-Luciferin, 10% Ethanol and 500 μM ATP at pH 7.8. Some screening assays also contained 68.8 mM chloroform (0.8% vol.).
# Different mutant luciferases were compared quantitatively by determining the percentage (%) inhibition of luciferase activity in the presence of chloroform relative to a control without chloroform. The specific activities of chloroform-tolerant mutants were generally lower as compared to wild type. […] The nucleotide sequence of CNBLuc03-02 is SEQ ID No: 1. The polypeptide sequence of the product of SEQ ID No: 1 is SEQ ID No: 2.
# [3] = Specific activity of luciferase in the absence of DTT; format: biochemical, Photinus pyralis; conditions: 0 mM DTT, pH 7.8, 1 mM ATP, 500 μM D-Luciferin, three replicates
# Protocol: Dithiothreitol (DTT) is an enzyme stabilizing agent used to reduce disulfide bonds (break the bonds) that are not normally formed under physiological conditions. Both purified wild type luciferase and CNBLuc03-06 luciferase (SEQ ID NO: 4) were diluted to 2 μg/ml in 40 mM Tris Acetate buffer at pH 7.8. The assay contained 40 mM Tris-Acetate at pH 7.8, 1 mM MgSO4, 0.1 mM EDTA, 500 μM D-Luciferin, 1 mM ATP, and 0 mM DTT. The light output was measured over time and three replicate measurements were made for each luciferase. The average value of the highest light output reading obtained over time was used to determine specific activity of each enzyme.
# [4] = Luciferase activity in the presence of nonionic detergent Triton X-100; format: biochemical, Photinus pyralis; conditions: FIG. 4; Triton X-100 up to 5%, 20 ng purified luciferase, 0% ethanol, 33 mM DTT
# Protocol: (§1) The stability of CNBLuc03-06 luciferase (SEQ ID NO: 4), both in purified form and in cell lysates, in the presence of a range of potential inhibitors was assayed. The basic assay contained 40 mM Tris-Acetate at pH 7.8, 1 mM MgSO4, 0.1 mM EDTA (ethylenediaminetetraacetic acid), 500 μM D-Luciferin and 500 μM ATP. Ethanol, DTT (dithiothreitol) and potential inhibitors were included at the concentrations stated.
# (§2) The stability of CNBLuc03-06 luciferase (SEQ ID NO: 4) in the presence of Triton X-100 and SDS was determined using 20 ng of purified luciferase per sample using the basic assay conditions and in the presence of 0% ethanol and 33 mM DTT. The effect of detergents on wild type luciferase was determined previously by W. J. Simpson and J. R. M. Hammond (W. J. Simpson and J. R. M. Hammond, (1991) Journal of Bioluminescence & Chemiluminescence, 6. 97–106, incorporated herein by reference). They reported the anionic detergents inhibit luciferase activity, and cationic detergents and nonionic detergents increase the reaction rate when the concentration of detergent exceeds critical micelle concentration (CMC) value but only up to certain concentrations.
# [5] = Stability of CNBLuc03-06 luciferase activity in the presence of HPV chemicals; format: biochemical, Photinus pyralis
# Protocol: as §1
# This effect was confirmed by repeated experiments. With 20 ng purified CNBLuc03-06 luciferase (SEQ ID NO: 4) and in the presence of 2.5% ethanol, 1 mM DTT and 86 mM chloroform an activation of approximately 50% was measured, compared with the absence of chloroform.
# The capacity of a variety HPV chemicals to inhibit or activate both wild type luciferase and CNBLuc03-06 luciferase (SEQ ID NO: 4) activity compared to controls without HPV chemicals was tested. Higher concentrations of chloroform (172 mM), methylene chloride (318 mM) or toluene (2.7 mM) were used. The basic assay contained 20ng of purified CNBLuc03-06, 1 mM DTT and 2.5% ethanol. CNBLuc03-06 luciferase (SEQ ID NO: 4) was exposed to each chemical for less than 5 minutes before measuring the light output.
# [6] = Luciferase activity at different pHs; format: biochemical, Photinus pyralis
# Protocol: 20 ng of enzyme was used for each reaction. The pH was maintained at 7.8 by 40 mM Tris-acetate buffer and 33 mM DTT was added to each reaction. Both substrates, MGATP and D-Luciferin were saturated at 1 mM and 500 μM respectively. The values were normalized against the highest RLU (relative light units) at each pH optimum for comparison purpose. CNBLuc03-06 luciferase (SEQ ID NO: 4) has optimum pH of 9, but the high enough activity is retained at lower pHs in which enables us to use this mutant luciferase in case a wide range of pH is required for the assay (between 8–11).
# [7] = Luciferase activity in the presence of anionic detergent SDS; format: biochemical, Photinus pyralis; conditions: FIG. 5; 20 ng purified luciferase, 0% ethanol, 33 mM DTT
# Protocol: as §1, §2
# SDS was used for testing the effect of anionic detergents.
molecule,measurement,setting,value
"CNBLuc03-06: modified Photinus pyralis luciferase: serine to threonine at 239, aspartic acid to tyrosine at 357, alanine to threonine at 532 (protein, listed as Photinus pyralis) MEDAKNIKKGPAPFYPLEDGTAGEQLHKAMKRYALVPGTIAFTDAHIEVNITYAEYFEMSVRLAEAMKRYGLNTNHRIVVCSENSLQFFMPVLGALFIGVAVAPANDIYNERELLNSMNISQPTVVFVSKKGLQKILNVQKKLPIIQKIIIMDSKTDYQGFQSMYTFVTSHLPPGFNEYDFVPESFDRDKTIALIMNSSGSTGLPKGVALPHRTACVRFSHARDPIFGNQIIPDTAILTVVPFHHGFGMFTTLGYLICGFAVVLMYRFEEELFLRSLQDYKIQSALLVPTLFSFFAKSTLIDKYDLSNLHEIASGGAPLSKEVGEAVAKRFHLPGIRQGYGLTETTSAILITPEGDYKPGAVGKVVPFFEAKVVDLDTGKTLGVNQRGELCVRGPMIMSGYVNNPEATNALIDKDGWLHSGDIAYWDEDEHFFIVDRLKSLIKYKGYQVAPAELESILLQHPNIFDAGVAGLPDDDAGELPAAVVVLEHGKTMTEKEIVDYVASQVTTAKKFRGGVVFVDEVPKGLTGKLDTRKIREILIKAKKGGKSKL",activity retained on incubation over time,[1],retained more activity than wild type luciferase
same,inhibition of luciferase activity in the presence of chloroform relative to a control without chloroform,[2],"not only resistant to, but also had the capacity to be activated by chloroform"
same,specific activity (highest light output),[3],9.6±0.4×10^9 RLU/mg enzyme/sec
same,effect of Triton X-100 on luciferase activity,[4],"activated by the nonionic detergent, Triton X-100, up to final concentration of 1.25%; also recorded: maintained activities above the control at all concentrations of Triton X-100"
same,activation compared with the absence of chloroform,"[5]; 20 ng purified enzyme, 2.5% ethanol, 1 mM DTT, 86 mM chloroform",approximately 50%
same,"activation compared to controls, chloroform","[5]; FIG. 3, chloroform 172 mM, 20 ng purified enzyme, 1 mM DTT, 2.5% ethanol",approximately 60%
same,"activation compared to controls, methylene chloride","[5]; FIG. 3, methylene chloride 318 mM, 20 ng purified enzyme, 1 mM DTT, 2.5% ethanol",approximately 80%
same,"activation compared to controls, toluene","[5]; FIG. 3, toluene 2.7 mM, 20 ng purified enzyme, 1 mM DTT, 2.5% ethanol",about 20%
same,activation compared with the absence of chloroform,"[5]; cell lysates, 5% ethanol, 33 mM DTT, 0.8% chloroform",about 30%
same,optimum pH,"[6]; FIG. 9, 20 ng enzyme, 33 mM DTT, 1 mM MgATP, 500 μM D-Luciferin",9
same,activity at elevated pH,[6]; up to pH 11,high activity at elevated pH (up to pH 11)
same,effect of SDS on luciferase activity,[7],inhibited luciferase activity significantly; also recorded: retained much more activity at all concentrations of SDS compared to wild type luciferase
